Residue numbers refer to the chain shown, from its start.
Tests used:
Settings in all cases: tags: R&D Systems; chain copies: 2
[1] = molecular target: T1, NGF (nerve growth factor) (Homo sapiens, UniProt P01138 P01138:122-241); assay: SPR; strong inhibition of NGF-receptor binding
Description: As directed in BIAcore's protocol, Protein A (21181, PIERCE) was immobilized on a CM5 sensor chip. About 700 to 1200 RU of human TrkA fused with the Fc portion of IgG (175-TK, R&D systems) or human P75 (367-NR, R&D systems) was immobilized thereon. As the analyte, a mixture of NGF (0.1 μM) and each aptamer (0.3 μM) was injected after being allowed to stand for 30 minutes. […] When NGF binds stronger to a receptor than an aptamer, the aptamer may be removed and NGF may bind to the receptor. Before starting the inhibition experiment, binding of TrkA or p75 and NGF was confirmed.

[2] = molecular target: T1, NGF (nerve growth factor); assay: SPR; more than 40N
Description: As the measuring apparatus, BIAcore2000 manufactured by BIAcore was used and, as the sensor chip, CM5 that reacts with an amino group was used. […] For the reaction of an amino group on the protein side and a carboxyl group on the chip side, ethyl-3-carbodiimide hydrochloride and N-hydroxysuccinimide were used. After the reaction, blocking by ethanolamine-HCl was performed. The immobilized amount of NGF was set to 3,000-4,000 RU. An aptamer for analyte was prepared to 0.15 μM-0.5 μM. As a running buffer, solution A was used. Here, solution A is a mixed solution of 145 mM sodium chloride, 5.4 mM potassium chloride, 1.8 mM calcium chloride, 0.8 mM magnesium chloride, 20 mM Tris (pH 7.6), 0.05% Tween 20. As a regeneration solution, a mixed solution of 1M NaCl and 50 mM NaOH was used. NGF was immobilized on FC2, and the results of FC1 were subtracted to give a final sensorgram.
The binding activity of these aptamers to NGF was evaluated by the surface plasmon resonance method in the same manner as in Example 1.

[3] = molecular target: T1, NGF (nerve growth factor); assay: SPR; binding maintained
[4] = molecular target: T1, NGF (nerve growth factor); assay: SPR; strong neurite inhibition at 10 nM
NT-3 (neurotrophin-3) = molecular target: T2, NT-3 (neurotrophin-3) (Homo sapiens, UniProt P20783 P20783:139-257); assay: cell_activity; TF-1 TrkC/p75 cells
T2 sequence: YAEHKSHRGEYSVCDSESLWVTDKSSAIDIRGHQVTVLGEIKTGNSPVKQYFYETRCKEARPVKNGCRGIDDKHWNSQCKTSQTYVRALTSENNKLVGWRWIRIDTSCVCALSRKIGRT
From the text: Using TF-1 cells, whether NGF aptamer inhibits BDNF, NT-3, NT-4 was examined. Human receptor genes (TrkB, TrkC, p75) for respective neurotrophic factors were introduced into TF-1 cells (ATCC Number: CRL-2003), which is a human erythroleukemic cell line, by using a retrovirus vector to give cells that highly express these receptors stably. TF-1 cells introduced with TrkB and p75 were used for the evaluation of inhibitory activity against BDNF, TF-1 cells introduced with TrkC and p75 were used for the evaluation against NT-3, and TF-1 cells introduced with TrkB alone were used for the evaluation against NT-4. These cells were suspended in an RPMI-1640 medium containing 20% fetal bovine serum, and seeded in a white 96 well flat-bottom plate at 1000 cells (50 μL) per well. Thereto was added a mixed solution 50 μL of human BDNF (final concentration 0.074 nM) or NT-3 (final concentration 0.074 nM) or NT-4 (final concentration 0.071 nM) and the aptamer (final concentration 1 μM-0.01 nM), which had been pre-reacted at room temperature for 30 min in a serum-free RPMI-1640 medium, 3 days later, 100 μL of CellTiter-Glo reagent for CellTiter-Glo Luminescent Cell Viability Assay (manufactured by Promega) was added to each well, chemiluminescence was measured by a microplate reader. With the amount of luminescence per well obtained by the addition of BDNF or NT-3 or NT-4 alone and culture of the cells for 3 days as inhibitory activity 0%, and that of the well obtained by culture for 3 days without addition of BDNF or NT-3 or NT-4 as inhibitory activity 100%, the inhibitory activity of the aptamer was calculated from the amount of luminescence per well obtained by culturing with the addition of BDNF or NT-3 or NT-4 and the aptamer in mixture. When the inhibitory activity was 0 or below, ‘0%’ is indicated. The 50% inhibitory concentration (IC₅₀) was determined from the concentrations at two, above and below points sandwiching the 50% inhibitory activity. An IC₅₀ value indicated as “>X” means that the inhibitory activity was not more than 50% when the indicated concentration X was the maximum measured concentration. N.D. means not measured.

[5] = molecular target: T1, NGF (nerve growth factor); assay: cell_activity; TF-1 cell proliferation inhibition
Description: Two NGF receptor (human TrkA and human p75) genes were introduced into TF-1 cells (ATCC Number: CRL-2003), which is a human erythroleukemic cell line, by using a retrovirus vector to give cells that highly express two receptors simultaneously and stably. The cells were suspended in an RPMI-1640 medium containing 20% fetal bovine serum, and seeded in a white 96 well flat-bottom plate at 1000 cells (50 μL) per well. […] With the amount of luminescence per well obtained by the addition of NGF alone and culture of the cells for 3 days as inhibitory activity 0%, and that of the well obtained by NGF free culture for 3 days as inhibitory activity 100%, the inhibitory activity of the aptamer was calculated from the amount of luminescence per well obtained by culturing with the addition of NGF and the aptamer in mixture.

NT-4 (neurotrophin-4) = molecular target: T3, NT-4 (neurotrophin-4) (Homo sapiens, UniProt P34130 P34130:81-210); assay: cell_activity; TF-1 TrkB cells
T3 sequence: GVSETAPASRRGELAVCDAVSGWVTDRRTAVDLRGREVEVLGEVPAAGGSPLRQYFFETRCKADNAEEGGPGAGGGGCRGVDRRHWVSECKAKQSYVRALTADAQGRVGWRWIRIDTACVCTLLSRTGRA
From the text: Using TF-1 cells, whether NGF aptamer inhibits BDNF, NT-3, NT-4 was examined. Human receptor genes (TrkB, TrkC, p75) for respective neurotrophic factors were introduced into TF-1 cells (ATCC Number: CRL-2003), which is a human erythroleukemic cell line, by using a retrovirus vector to give cells that highly express these receptors stably. TF-1 cells introduced with TrkB and p75 were used for the evaluation of inhibitory activity against BDNF, TF-1 cells introduced with TrkC and p75 were used for the evaluation against NT-3, and TF-1 cells introduced with TrkB alone were used for the evaluation against NT-4. These cells were suspended in an RPMI-1640 medium containing 20% fetal bovine serum, and seeded in a white 96 well flat-bottom plate at 1000 cells (50 μL) per well. Thereto was added a mixed solution 50 μL of human BDNF (final concentration 0.074 nM) or NT-3 (final concentration 0.074 nM) or NT-4 (final concentration 0.071 nM) and the aptamer (final concentration 1 μM-0.01 nM), which had been pre-reacted at room temperature for 30 min in a serum-free RPMI-1640 medium, 3 days later, 100 μL of CellTiter-Glo reagent for CellTiter-Glo Luminescent Cell Viability Assay (manufactured by Promega) was added to each well, chemiluminescence was measured by a microplate reader. With the amount of luminescence per well obtained by the addition of BDNF or NT-3 or NT-4 alone and culture of the cells for 3 days as inhibitory activity 0%, and that of the well obtained by culture for 3 days without addition of BDNF or NT-3 or NT-4 as inhibitory activity 100%, the inhibitory activity of the aptamer was calculated from the amount of luminescence per well obtained by culturing with the addition of BDNF or NT-3 or NT-4 and the aptamer in mixture. […] The 50% inhibitory concentration (IC₅₀) was determined from the concentrations at two, above and below points sandwiching the 50% inhibitory activity. An IC₅₀ value indicated as “>X” means that the inhibitory activity was not more than 50% when the indicated concentration X was the maximum measured concentration. N.D. means not measured.

[6] = molecular target: T1, NGF (nerve growth factor); assay: cell_activity; neurite outgrowth inhibition
Description: The cells (2500 cells per well) were cultured for one day in an RPMI-1640 medium containing 2.5% horse serum and 1.25% fetal bovine serum in a 96 well flat-bottom plate coated with collagen type IV. […] Two days later, the cytoplasm and nuclei were stained using Cellomics Neurite Outgrowth Kit (manufactured by Thermo Scientific), and neurite length per cell was measured by Cellomics ArrayScan VTI (manufactured by Thermo Scientific). With the neurite length per cell obtained by the addition of NGF alone as inhibitory activity 0%, and that of the cell obtained by NGF free culture for 2 days as inhibitory activity 100%, the inhibitory activity of the aptamer was calculated from the neurite length per cell obtained by culturing with the addition of NGF and the aptamer in mixture.

T1 sequence (P01138 122-241, one chain of several): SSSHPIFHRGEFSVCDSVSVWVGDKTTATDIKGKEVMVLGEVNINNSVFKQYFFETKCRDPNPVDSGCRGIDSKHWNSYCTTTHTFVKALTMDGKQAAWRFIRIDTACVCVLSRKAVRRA

B1: SEQ ID NO: 4 (ssRNA)
RNA: GGGAGAACUUCGACCAGAAGUACGUUAGUACGUUUGCAUAUGUACAACCUUGCAUACGAUACGUAGAUUAUGUGCGCAUACAUGGAUCCUC
modifications: 2'-F C and U; 2'-OH G; 2'-H (deoxy) A
binding result [1]: binds

B2: SEQ ID NO: 17 (ssRNA)
RNA: AGAAGUGCAAUACUUUCGCGGCAUAUGUGCAAACCUUGCCACGACUAUGUGCGCAUAC
modifications: 2'-F C and U; 2'-OH G; 2'-H (deoxy) A
binding result [2]: binds

GGGUCCUGCUGCGUAGUUUCCGUCUACGUGGCUGUUACCC (ssRNA, 2'-F C/U, dA, 2'-OH G) [SEQ ID NO: 63]
binding result [3]: binds

GGGUCCUGCCGCGUAGUUUCCGUCUUCGCGGUUGUUACCC (ssRNA, 2'-F C/U, dA, 2'-OH G) [SEQ ID NO: 93]
binding result [4]: binds

GGGUCCUGCUGCGUAGUUUCCAUCUUCGUGGCUGUUACCC (ssRNA, 2'-F C/U, dA, 2'-OH G) [SEQ ID NO: 95]
binding result [4]: binds

GGGUCCUGUUGCGUAGUUUCCGUCUACGUGACUGUUACCC (ssRNA, 2'-F C/U, dA, 2'-OH G) [SEQ ID NO: 64]
binding result [3]: binds

GGGUCCUGCUGCGUAGUUUCCGUCUUCGCGGUUGUUACCC (ssRNA, 2'-F C/U, dA, 2'-OH G) [SEQ ID NO: 75]
binding result [3]: binds

GGGUCCUGCUACGGAGUUUCCGUCUCGGUGGCUGUUACCC (ssRNA, 2'-F C/U, dA, 2'-OH G) [SEQ ID NO: 65]
binding result [3]: binds

GGGUCCUGCUGCGUAGUUUCCGUCUGCGGAGCUGUUACCC (ssRNA, 2'-F C/U, dA, 2'-OH G) [SEQ ID NO: 94]
binding result [4]: binds

GGGUCCUGUUGCGUAGUUUCCGUCUGCGUGGCUGUUACCC (ssRNA, 2'-F C/U, dA, 2'-OH G) [SEQ ID NO: 69]
binding result [3]: binds

GGGUCCUGCUACGUAGUUUCCGUCUGCGUGGCUGUUACCC (ssRNA, 2'-F C/U, dA, 2'-OH G) [SEQ ID NO: 97]
binding result [4]: binds

GGGUCCUGCUACGUAGUUUCCGUCUACGUGGCUGUUACCC (ssRNA, 2'-F C/U, dA, 2'-OH G) [SEQ ID NO: 98]
binding result [4]: binds

GGGUCCUGCUGCGUAGUUUCCGUCUAUGUGGCUGUUACCC (ssRNA, 2'-F C/U, dA, 2'-OH G) [SEQ ID NO: 96]
binding result [4]: binds

UGCAAUACUUUCGCGGCAUAUGUGCAAACCUUGCCACGACUAUGUGCG (ssRNA, 2'-F C and U; 2'-OH G; 2'-H (deoxy) A) [SEQ ID NO: 18]
binding result [2]: binds

GGGAAUACUUUCGCGGCAUAUGUGCAAACCUUGCCACGACUAUGUCCC (ssRNA, 2'-F C and U; 2'-OH G; 2'-H (deoxy) A) [SEQ ID NO: 21]
binding result [2]: binds

B3: SEQ ID NO: 2 (ssRNA)
RNA: GGGAGAACUUCGACCAGAAGUCCAAACGGGACUUUAUACCUCUGAGUCGCCUACGCUCCUAUGUGCGCAUACAUGGAUCCUC
modifications: 2'-F C and U; 2'-OH G; 2'-H (deoxy) A
binding result [1]: binds

B4: SEQ ID NO: 7 (ssRNA)
RNA: GGGAGAACUUCGACCAGAAGACGCACCUCUUAUCACACAUGCGUCAGCCUUGUGAUACUAUGUGCGCAUACAUGGAUCCUC
modifications: 2'-F C and U; 2'-OH G; 2'-H (deoxy) A
binding result [1]: binds

B5: SEQ ID NO: 5 (ssRNA)
RNA: GGGAGAACUUCGACCAGAAGUUAGAAGAGGACUAGUUGCUAAUGCCCUGGUUCGUCGCUAUAUGUGCGCAUACAUGGAUCCUC
modifications: 2'-F C and U; 2'-OH G; 2'-H (deoxy) A
binding result [1]: binds

B6: SEQ ID NO: 82(16) (ssRNA)
RNA: GGGUCCUGGAUAAGAGUUUCCGUCUCGUAUCCUGUUACCC
modifications: 2'-F C and U except C38; 2'-OMe G1-3,G9,G14,G16,G22,G27,C38; 2'-OH G8,G34; 2'-H A; idT 5' and 3'
IC50 (NT-3 (neurotrophin-3)): 34.4 nM | IC50 [5]: 0.026 nM | IC50 (NT-4 (neurotrophin-4)): < 3 nM

B7: SEQ ID NO: 82(55) (ssRNA)
RNA: B6 RNA
modifications: 2'-F C5,U7,U17,U18,U19,C20,C24,U25,U33,U36; 2'-OH G8,G34; 2'-H A; 2'-OMe all other; 5' PEG80TS4; 3' idT
IC50 (NT-3 (neurotrophin-3)): 0.97 nM | IC50 [6]: 0.101 nM | IC50 [5]: 0.039 nM

B8: SEQ ID NO: 82(2) (ssRNA)
RNA: B6 RNA
modifications: 2'-F C and U except U4; 2'-OMe G1-3,U4,G9,G14,G16,G22,G27; 2'-OH G8,G34; 2'-H A; idT 5' and 3'
IC50 (NT-3 (neurotrophin-3)): 40.6 nM | IC50 [5]: 0.041 nM | IC50 (NT-4 (neurotrophin-4)): < 3 nM

B9: SEQ ID NO: 162 (ssRNA)
RNA: B6 RNA with U17T, U33T
modifications: 2'-F C5,U7,U18,U19,C20,C24,U25,U36; dT17,dT33; 2'-OH G8,G34; 2'-H A; 2'-OMe all other; idT 5' and 3'
IC50 [6]: 0.033 nM | IC50 [5]: 0.014 nM

B10: SEQ ID NO: 3 (ssRNA)
RNA: GGGAGAACUUCGACCAGAAGUUGGCACAUCCUGCUGCGUAGUUUCCGUCUCCGUGGCUGUUAUGUGCGCAUACAUGGAUCCUC
modifications: 2'-F C and U; 2'-OH G; 2'-H (deoxy) A
binding result [1]: binds

GUGCAAUACUUUCGCGGCAUAUGUGCAAACCUUGCCACGACUAUGUGCGC (ssRNA, 2'-F C and U; 2'-OH G; 2'-H (deoxy) A) [SEQ ID NO: 20]
binding result [2]: binds

GCAAUACUUUCGCGGCAUAUGUGCAAACCUUGCCACGACUAUGUGC (ssRNA, 2'-F C and U; 2'-OH G; 2'-H (deoxy) A) [SEQ ID NO: 19]
binding result [2]: binds
